Entries after “also recorded” stand apart in the source; their conditions may differ.
Tests used:
[1] = target: T1, Human MMP-9 catalytic domain (Homo sapiens, UniProt P14780); experiment: Ki determination with fluorogenic peptide substrate; assay type: biochemical; conditions: fluorogenic peptide substrates
T1 construct: Human MMP-9 catalytic domain (BIOMOL, SE-244); purchased BIOMOL SE-244
Procedure: (§1) This example characterized the interaction of the M0237-D02 hIgG1 with the human and mouse MMP-9. The Ki was measured and the inhibition mechanism was determined.
(§2) Materials: • Substrate: Mca -KPLGL-Dap(Dnp)-AR-NH2(SEQ ID NO: 1279) (M-2350) from BACHEM (521575). A 10mM stock solution was prepared in DMSO. • Enzymes: • Human MMP-9 catalytic domain (BIOMOL, SE-244). Enzyme concentration was measured by titration with TIMP-1 (2522-104) • Mouse MMP-9 (R&D, 909-MM), APMA-activated. • M0237-D02 hIgG1 : 2517-014. Dialysed against TCN. • TCNB: 50 mM Tris/HCl, 10 mM CaCl2, 150 mM NaCl, 0.05% Brij 35, pH 7.5. • 96-well black plates from Perkin Elmer (6005270) • Spectramax M2e to measure fluorescence emission of the substrate upon hydrolysis (temperature control set at 30° C.; λexc=328 nm and λem=393 nm)
(§3) The enzyme (final concentration=0.23 and 0.17 nM for the human and mouse MMP-9, respectively) was preincubated with various concentrations (0-50 nM) of M0237-D02 for 1 h at 30° C. The substrate was then added to a final concentration ranging from 5 to 40 μM and initial rates were recorded.
(§4) Each data point was measured in triplicate, and initial rates were averaged.
(§5) Averaged initial rates were plotted against the M0237-D02 concentration for each substrate concentration, and IC50's were calculated using the following equation: […]
(§6) The IC50 values were then plotted against the substrate concentration.

Mouse MMP-9 = target: T2, Mouse MMP-9 (Mus musculus, UniProt P41245); experiment: as above; assay type: biochemical; conditions: fluorogenic peptide substrates
T2 construct: purchased R&D 909-MM
Procedure: as §1, §2, §3, §4, §5, §6

[2] = target: T1, Human MMP-9 catalytic domain; experiment: Biacore binding of analyte to coated antibody; conditions: 25° C.
Procedure: (§7) The non competitive inhibition model implies that the ternary complex enzyme-substrate-inhibitor can form. It is however possible that this complex cannot form with bigger substrates, in which case the antibody would behave as a competitive inhibitor. In order to address this issue, the ability of M0237-D02 antibody to bind to the h-MMP-9 when the enzyme is complexed to its natural inhibitor h-TIMP-1 was determined. The reasoning is that if the antibody cannot bind to the h-MMP-9/h-TIMP-1 complex, it would probably behave as a competitive inhibitor of this enzyme in the presence of bigger substrates.
(§8) Experiments were performed at 25° C. with the help of a Biacore 3000 instrument. The MMP-9 binding protein (M0166F10) and the M0237-D02 antibody were coated to a CM5 chip either via standard amine coupling or using an anti-Fc antibody surface. Then either the active, human MMP-9 catalytic domain (BIOMOL, SE-244), the human pro-MMP-9 (R&D, 911-MP), the human TIMP-1 (R&D, 970-TM) or a h-MMP-9/h-TIMP-1 complex were flowed over the antibody surfaces, and binding was recorded.

h-MMP-9/h-TIMP-1 complex = h-MMP-9/h-TIMP-1 complex (Homo sapiens, UniProt P14780); experiment: Biacore binding of analyte to coated antibody; conditions: 25° C.
Procedure: as §7, §8

human TIMP-1 = target: T3, human TIMP-1 (Homo sapiens, UniProt P01033); experiment: Biacore binding of analyte to coated antibody; conditions: Direct capture; 25° C.
T3 construct: purchased R&D 970-TM
Procedure: as §7, §8

human pro-MMP-9 = target: T4, human pro-MMP-9 (Homo sapiens, UniProt P14780); experiment: Biacore binding of analyte to coated antibody; conditions: Direct capture, 25° C.
T4 construct: the human pro-MMP-9 (R&D, 911-MP); purchased R&D 911-MP
Procedure: as §7, §8

[3] = target: T1, Human MMP-9 catalytic domain; experiment: Inhibition progress curves and kinetic analysis; assay type: biochemical; conditions: 25° C.; for kobs: substrate 9 μM
Procedure: The kinetics of the interaction between M0237-D02 and the human MMP-9 were determined. The rates were determined using the following equation: […]
The second order rate constant for the association of the enzyme E and the inhibitor I (kon) and the first order rate constant for the dissociation of the complex El (koff) can be calculated from inhibition progress curves obtained at different inhibitor concentrations.
Materials: • Substrate: Mca -KPLGL-Dap(Dnp)-AR-NH2(SEQ ID NO: 1279) (M-2350) from BACHEM (521575). A 10mM stock solution was prepared in DMSO. • Human MMP-9 catalytic domain (BIOMOL, SE-244). • M0237-D02 hIgG1 : 2517-068. • All measurements were performed at 25° C. in TCNB: 50 mM Tris/HCl, 10 mM CaCl2, 150mM NaCl 0.05% Brij 35, pH 7.5. • 96-well black plates from Perkin Elmer (6005270) • Spectramax M2e to measure fluorescence emission of the substrate upon hydrolysis (λexc=328 nm and λem=393 nm)
The enzyme (at a final concentration ranging from 1.5 to 12.3 nM), the substrate (9 μM final) and the M0237-D02 antibody were mixed, and the fluorescence was immediately recorded in order to follow the hydrolysis of the substrate. The observed inhibition rate (kobs) was obtained by analyzing the progress curves with a single exponential. The value for kon and koff were calculated from the plot of the kobs vs. the antibody concentration using the following equation: kobs=kon[I]+koff
kobs was measured at four antibody concentrations (table below): […]

[4] = system: gelatinolytic activity (tumoral MMP-2-9) in Colo205 tumor sections; experiment: Film in situ zymography (FIZ); assay type: biochemical, human; conditions: 500 nM, 37° C. overnight
Procedure: (§9) PBS-control treated tumors were screened with M0237-D02 for gelatinase expression using the FIZ approach. The tumors tested were Colo205 and MCF-7. Briefly, frozen slides of tumpor sections were dried at room temperature and 200 μl of in situ Zymo buffer (TCNB)+20 μg/ml of gelatin quenched substrate from molecular probes was added. The slides were incubate at 37° c. overnight in the presence of M0237-D02 at 500 nM or GM6001 used as a positive control at 100 μM. The substrate was washed in MilliQ (3 times) and the mounted slides were treated with anti-Fade+Dapi mounting medium.

[5] = system: gelatinolytic activity (tumoral MMP-2-9) in MCF-7 tumor sections; experiment: Film in situ zymography (FIZ); assay type: biochemical, human; conditions: 500 nM, 37° C. overnight
Procedure: as §9

[6] = system: inflammatory cell infiltration into the carrageenan-stimulated mouse air pouch; experiment: Carrageenan-stimulated mouse air pouch model; assay type: in vivo; conditions: FIG. 2
Text: (§10) The purpose of the following experiments were to determine the effect of 539A-M0237-D02 on inflammation and specifically on inflammatory cell infiltration into the carrageenan-stimulated mouse air pouch and on the arthritic index in collagen-induced arthritis (CIA) mice.
For the carrageenan-stimulated mouse air pouch model, subcutaneous injection of air into the hind flank or back of mice produces an air pouch in a week, the interior surface of which contains both fibroblast-like and macrophage-like cells. Inflammatory stimulation of the pouch results in leukocyte recruitment to the pouch and release of mediators (cytokines) into the exudate. Preventing inflammatory cell infiltration into the air pouch may translate into preventing inflammation of the synovium in rheumatoid arthritis.
The effect of 539A-M0237-D02 on inflammatory cell infiltration was compared to inflammatory cell infiltration indomethacin and a control (PBS). In addition, inflammatory cell recruitment was compared to an unstimulated mouse.

[7] = system: collagen-induced arthritis (CIA) mice; experiment: Collagen-induced arthritis (CIA) mice; assay type: in vivo, mouse; conditions: CIA model, compared to untreated mice; FIG. 3
Text: as §10
The collagen-induced arthritis (CIA) was produced by the immunization of susceptible strains of mice with native type II collagen. The collagen was emulsified in Freund's complete adjuvant and injected subcutaneously. A booster injection of collagen in incomplete adjuvant was given IP 21 days after the initial immunization. The disease is due to an auto-immune response induced upon immunization with collagen.
The effect 539A-M0237-D02 on the arthritic index was compared to administration of methotrexate (MTX).

[8] = Direct capture (amine coupling) of antibody on CM5 chip
[9] = Fc capture (anti-Fc antibody surface)
[10] = from plot of kobs vs. the antibody concentration

T1 sequence (P14780 107-449 limits assumed): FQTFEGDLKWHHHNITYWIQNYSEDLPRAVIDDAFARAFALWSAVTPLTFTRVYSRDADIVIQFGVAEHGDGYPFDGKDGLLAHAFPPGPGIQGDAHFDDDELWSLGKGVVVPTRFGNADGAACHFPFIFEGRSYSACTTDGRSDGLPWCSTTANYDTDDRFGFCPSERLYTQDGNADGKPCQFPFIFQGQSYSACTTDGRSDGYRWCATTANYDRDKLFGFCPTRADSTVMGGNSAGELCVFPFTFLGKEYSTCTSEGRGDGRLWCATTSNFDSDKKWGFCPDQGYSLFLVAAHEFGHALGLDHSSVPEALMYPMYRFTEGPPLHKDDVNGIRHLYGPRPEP
Chain of h-MMP-9/h-TIMP-1 complex (P14780 107-449 limits assumed): as above
Chain of h-MMP-9/h-TIMP-1 complex (P01033 24-207 partner): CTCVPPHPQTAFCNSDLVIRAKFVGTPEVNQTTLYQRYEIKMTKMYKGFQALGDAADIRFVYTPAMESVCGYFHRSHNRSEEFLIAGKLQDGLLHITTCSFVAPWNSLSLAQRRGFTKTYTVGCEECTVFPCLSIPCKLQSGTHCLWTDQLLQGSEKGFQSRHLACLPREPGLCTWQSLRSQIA
T4 sequence (P14780 20-707 limits assumed): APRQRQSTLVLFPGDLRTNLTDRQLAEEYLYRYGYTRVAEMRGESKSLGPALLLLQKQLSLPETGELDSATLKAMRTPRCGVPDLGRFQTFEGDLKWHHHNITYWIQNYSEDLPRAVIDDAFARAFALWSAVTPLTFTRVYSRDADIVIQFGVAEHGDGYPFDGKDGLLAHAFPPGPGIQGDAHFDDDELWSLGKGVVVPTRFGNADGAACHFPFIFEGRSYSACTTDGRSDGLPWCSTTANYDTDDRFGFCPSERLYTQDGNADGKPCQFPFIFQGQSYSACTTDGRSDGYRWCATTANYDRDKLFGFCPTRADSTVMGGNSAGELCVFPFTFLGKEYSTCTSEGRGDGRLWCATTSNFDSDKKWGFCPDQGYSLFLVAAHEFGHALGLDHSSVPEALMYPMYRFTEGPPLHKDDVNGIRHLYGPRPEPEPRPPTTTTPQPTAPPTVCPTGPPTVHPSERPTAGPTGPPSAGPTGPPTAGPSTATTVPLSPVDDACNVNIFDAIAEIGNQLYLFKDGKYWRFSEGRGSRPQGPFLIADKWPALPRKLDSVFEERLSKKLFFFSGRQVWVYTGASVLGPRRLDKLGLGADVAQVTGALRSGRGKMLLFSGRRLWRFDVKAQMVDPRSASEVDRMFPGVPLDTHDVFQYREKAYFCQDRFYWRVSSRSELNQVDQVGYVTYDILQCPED
T3 sequence (P01033 24-207): as the sequence (P01033 24-207 partner) above
T2 sequence (P41245 108-730): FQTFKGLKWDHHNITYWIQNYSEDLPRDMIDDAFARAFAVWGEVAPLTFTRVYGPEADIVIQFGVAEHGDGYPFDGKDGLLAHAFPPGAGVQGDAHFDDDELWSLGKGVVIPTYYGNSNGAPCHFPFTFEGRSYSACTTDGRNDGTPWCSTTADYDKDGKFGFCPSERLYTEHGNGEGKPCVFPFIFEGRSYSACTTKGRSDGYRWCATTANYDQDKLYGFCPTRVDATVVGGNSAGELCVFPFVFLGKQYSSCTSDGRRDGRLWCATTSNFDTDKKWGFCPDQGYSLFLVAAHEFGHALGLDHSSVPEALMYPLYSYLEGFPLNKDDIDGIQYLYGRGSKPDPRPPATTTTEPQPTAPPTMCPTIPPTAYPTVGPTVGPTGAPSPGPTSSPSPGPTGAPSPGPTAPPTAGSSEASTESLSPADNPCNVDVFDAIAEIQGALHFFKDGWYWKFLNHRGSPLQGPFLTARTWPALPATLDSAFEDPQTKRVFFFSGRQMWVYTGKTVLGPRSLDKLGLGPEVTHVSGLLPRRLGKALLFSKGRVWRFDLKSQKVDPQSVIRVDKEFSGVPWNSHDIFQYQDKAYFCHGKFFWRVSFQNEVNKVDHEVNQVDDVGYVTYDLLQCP

B1: M0237-D02: MMP-9/-2 dual reactive antibody inhibitor (parental); used as hIgG1 and Fab; VL/VH sequences in Example 7 (antibody, V domains shown)
VL: QDIQMTQSPATLSLSPGERATLSCRASQSISSFLAWYQQKPGQAPRLLIYDASYRATGIPARFSGSGSGTDFTLTISSLEPEDYAVYYCQQRGNWPITFGQGTRLEIKRTVAAPS
VH: EVQLLESGGGLVQPGGSLRLSCAASGFTFSQYPMWWVRQAPGKGLEWVSYIVPSGGRTYYADSVKGRFTISRDNSKNTLYLQMNSLRAEDTAVYYCAKDRAYGDYVGWNGFDYWGQGTLVTVSSASTKGPSVFPLAPSSKS
inhibition model [1]: non competitive inhibitor | inhibition model (Mouse MMP-9): non competitive inhibitor | Binding of Cat-huMMP-9 [2, 8]: No | Binding of Cat-huMMP-9 [2, 9]: could be observed only if this antibody was captured via an anti-Fc antibody | Binding of Cat-huMMP-9 ([2]; Fc capture (anti-Fc antibody surface), listed as 539A-M0237D02): Yes | Binding of huTIMP-1/cat-huMMP-9 (h-MMP-9/h-TIMP-1 complex; Direct capture): No | Binding of huTIMP-1/cat-huMMP-9 (h-MMP-9/h-TIMP-1 complex; Fc capture): no binding was observed; also recorded: cannot bind | Binding of huTIMP-1/cat-huMMP-9 (h-MMP-9/h-TIMP-1 complex; Fc capture, listed as 539A-M0237D02): No | Binding of huTIMP-1 (human TIMP-1): No | Binding of Pro-huMMP-9 (human pro-MMP-9; listed as 539A-M0237D02): No | Binding of Pro-huMMP-9 (human pro-MMP-9; listed as M237-D02): observed neither | kobs ([3]; M0237-D02 concentration 14.4 nM): 0.0013 s⁻¹ | kobs ([3]; M0237-D02 concentration 19.2 nM): 0.0019 s⁻¹ | kobs ([3]; M0237-D02 concentration 28.8 nM): 0.0024 s⁻¹ | kobs ([3]; M0237-D02 concentration 115.2 nM): 0.0086 s⁻¹ | koff [3, 10]: ~4 10^−4 s^−1 | kon [3, 10]: ~7 10^4 M^−1 s^−1 | inhibition of gelatinolytic activity [4]: complete inhibition | inhibition of gelatinolytic activity [5]: complete inhibition | lymphocyte infiltration [6]: significantly decreased | neutrophil infiltration [6]: significantly decreased | total white blood cell infiltration [6]: significantly decreased | arthritic index [7]: decreased

B2: M0166-F10: inhibitory MMP-9 binding antibody (hMMP-9 antibody inhibitor) (antibody, V domains shown)
VL: QSELTQPPSASAAPGQRVTISCSGSSSNIGSNTVTWYQKLPGTAPKLLIYNNYERPSGVPARFSGSKSGTSASLAISGLQSEDEADYYCATWDDSLIANYVFGSGTKVTVLGQPKANP
VH: EVQLLESGGGLVQPGGSLRLSCAASGFTFSPYLMNWVRQAPGKGLEWVSSIYSSGGGTGYADSVKGRFTISRDNSKNTLYLQMNSLRAEDTAVYYCARIYHSSSGPFYGMDVWGQGTTVTVSSASTKGPSVFPLAPSSKS
Binding of Cat-huMMP-9 [2, 8]: binds | Binding of Cat-huMMP-9 ([2]; Direct capture (amine coupling) of antibody on CM5 chip, listed as 539A-M0166F10): Yes | Binding of Cat-huMMP-9 [2, 9]: binds | Binding of Cat-huMMP-9 ([2]; Fc capture (anti-Fc antibody surface), listed as 539A-M0166F10): Yes | Binding of huTIMP-1/cat-huMMP-9 (h-MMP-9/h-TIMP-1 complex; Direct capture): no binding was observed | Binding of huTIMP-1/cat-huMMP-9 (h-MMP-9/h-TIMP-1 complex; Direct capture, listed as 539A-M0166F10): No | Binding of huTIMP-1 (human TIMP-1): No | Binding of Pro-huMMP-9 (human pro-MMP-9): observed neither | Binding of Pro-huMMP-9 (human pro-MMP-9; listed as 539A-M0166F10): ~No

Source: patent publication US8013125B2, “Metalloproteinase 9 and metalloproteinase 2 binding proteins” (Dyax Corp., priority 2008, dated 2011)
